Test results published in the nanobody polyreactivity screen of Harvey et al. (2022).

Experiment: yeast display, Sf9 membrane polyspecificity reagent, FACS + sequencing; frameworks hold sequencing errors
Summary of the method: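 Galactose induction of a Saccharomyces cerevisiae BJ5465 synthetic nanobody display library ran 36–48 hours. The cells were then stained for 1 hour at 4 °C with 10% biotinylated, detergent-solubilized Sf9 membrane reagent, pulled down on streptavidin microbeads and FACS-sorted into low and high (top ~1%) gates on expression and reagent-binding fluorescence. Labels for polyreactivity follow the gate of origin.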

QVQLVESGGGLVQAGGSLRLSCAASGRIIYGYTMGWYRQAPGKERELVAVISRGGSTNYADSVKGRFSISRDNAKYTVYLQMNSLKPEDTAVYYCAATTKLPRGNYWYYYWGQGTQVTVSS
polyreactivity (PSR sort gate): high polyreactivity

QVQLVESGGGLVQAGGSLRLSCAASGLIFGWNARGWYRQAPGKERELVAAINSGGITNYADSVKGRFTISRDNAKNTVYFQMNWLKPEDTAVYYCAADVVQYGLDWYGEEYESWGQGTQVTVSS
polyreactivity (PSR sort gate): low polyreactivity

QVQRVESGGGLVQAGGSLRLSCAASGSIFGPNAMGWYRQAPGKERELVAAITLSGGSTYYADSVKGRFTISRDNAKNTVYLQMNSLKPEDTAVYYCAAEYYQTTYVWWTYDYYWGQGTQVTVSS
polyreactivity (PSR sort gate): low polyreactivity

QVQLVESGGGLVQAGGSLRLSCAASGSTFPGNAMGWYRQAPGNERELVAAIRWSGGRTYYADSVKGRFTISRDNAKNTVYLQMNSLKPEDTAVYYCAARLRKHGYGYWGQGTQVTVSS
polyreactivity (PSR sort gate): low polyreactivity

QVQLVESGGGLVQAGGSLRLRCAASGSIFTWYAMGWYRQAPAKERELVAAITRGGSTSADSVKGRFTISRDNAKNTVYLQMNSLKPEYTAVYYCNAVYGVYDFNYWGQGTQVTVSS
polyreactivity (PSR sort gate): low polyreactivity

QVQLVESGGGLVQAGGSLRLSCAASGRTFGIYAMGWYRQAPGKERELVASISWSGGRTYYADSVKGRFTISRDNAKNTVYLQMNSLIPEDTAVYYCAAYGVYYPRSWQYFDWYGYWGQGTQVTVSS
polyreactivity (PSR sort gate): high polyreactivity

QLQLVESGGGLVQAGGSLRLSCAASGLIFPFYAMGWYRQAPGKERELVAAITSSGNTYYADSVKGLFTISRDNAKNTVYLQMNSLKPEDTAVYYCAADGSRIVKFDYWGQGTQVTVSS
polyreactivity (PSR sort gate): high polyreactivity

QVQLVESGGGLVQAGGSLRLSCAASGRTFGRNALGWYRQAPGKEREFVAAISRRGDTTYYADSVKGRFTISRDNAKNTVYLQMNSLKPEDTAVYYCNADVIKDRFYWYYYWGQGTQVTVSS
polyreactivity (PSR sort gate): low polyreactivity

QVQLVESGGGLVQAGGSLRLSCAASGRTFQVNAMGWYRQAPGKERELVAAISRRGGSTYYADSVKGRFTISRDNAKNTVYLQMNSLKPEDTAVYYCAATASTYYLWRYNYWGQGTQVSVSS
polyreactivity (PSR sort gate): high polyreactivity

QVQLVESGGGLVQAGRSLRLSCAASGITFIYYAMGWYRQAPGKESELVAAISKSGGRTYYADSVKGRFTISRDNAKNTVYLQMNSLKPEDTAVYYCNKLVGDDTDLYDYWGQGTQVTVSS
polyreactivity (PSR sort gate): high polyreactivity

QVQLVESGGGLVQAGGSLRLSCAASGRIFYTNAMGWYRKAPGKERELVAGITCSGDSTYYADSVKGRFTISRDNAKNTVYLQMNSLKPEDTPVYYCAARWRYVLMDYWGQGNQVTVSS
polyreactivity (PSR sort gate): low polyreactivity

QVQLVESGGGLVQAGGSLRLSCAASGITFRSYAMGWYRQAPGKERELVAAISSTGRTYYADSVKGRFTISRDNAKNTVYLQMNSLKPEDTAGYYCNAKRYIWGQGTQVTVSS
polyreactivity (PSR sort gate): high polyreactivity

QVQLVESGGGLVQAGGSLRLSCAASGRTGVNAMGWYRQAPGKERGLVAAINTSVGRTYYADSVKGRFTISRDNAKNTVYLQMNSLKQEDTAVYYCNTDRLGAARYDYWGHGTQVTVSS
polyreactivity (PSR sort gate): low polyreactivity

QVQLVESAGGLVQAGGSLRLSCAASGFTFYRNAIGWYRQEPGTERELVAGITRSGGSTYYADSVKGRLTISRDNAKNTVYLQMNSLKPEDTAVYYCNKAFGGDKYSGTYDYWGQGTQVTVSS
polyreactivity (PSR sort gate): high polyreactivity

QVQLVESGGGLVQAGGSLRLSCAASGRIFENNAMGWYRQAPGKERELVAAITSSGGRTYYADSVKGRFTISRDNAKNTVYLQMNSLIPEDTAVYYCNAYQYYERYDTYLFRYDYWGQGTQVTVSS
polyreactivity (PSR sort gate): low polyreactivity

QVQLVESGGGLVQAGGSLRLSCAASGSIFTPYAMGWYRQAPGKERELVADIDASGGGTYADSVKGRFTISRDNAKNTVYLQMNSLKPEDTAVFYCNADTGIWDYRFVDRDYWGQGTQVTVSS
polyreactivity (PSR sort gate): low polyreactivity

QVQLEESGGGLVQAGGSLRLSCAASGRIFLYNAMGWYRQAPGKERELVAAISRSGGSTYYADSVKGRFTISRDNAKNTVYLQMNSLKPEDTAVYYCAVGSPYGCRAPWVRGGDYWGQGTQVTVSS
polyreactivity (PSR sort gate): high polyreactivity

QVQLVESGGGLVQAGGSLRLSCAASGSIFIYYAMGWTRQAPGKERELVATISSDDRTNYTDSVKGRFTISRDNAKNTVYLQMNSLKPEDTAVYYCAADRYWGGRDGPEYDYWGQGTQVTVSS
polyreactivity (PSR sort gate): low polyreactivity

QVQLVESGGGLVQAGGSLRLSCAASGLTFSTYAMGWYRQAPGKERELVATITYSGSSTYADSVKGRFTIARDNAKNTVYLQMNSLKPEDTAVYFCAAVTYHGNPSEYFPDTVGFYYWGQGTQVTVSS
polyreactivity (PSR sort gate): low polyreactivity

QVQLVESGGGLVQAGGSLRLSCAASGSIAGNAMGWYRQARGKEREMVAAITFRGSGTYYADSVKGRFTISRDNAKKTVYLQMNSLKPEDTAVYYCNAYRRGLSGYGYWGQGTQVTVSS
polyreactivity (PSR sort gate): high polyreactivity

QVQLVESGGGLVQAGGSLRLSCAASGITFRNYAMVWSRQAPGKERELVADITTGGSTYADSVKGRFTISRDNAKNTVYLQMISLNPEDTAVYYCAADRDFRTPRLYYWGQGTQVTVSS
polyreactivity (PSR sort gate): low polyreactivity

QVQLVESGGGLVQAGGSLRLSCAASGNIFSFNDMGWYRQAPGKERELVAAITSSDSTNYADSVKGRFTISRDNAKNTVYLQMNSLKPEDTAVFYCATEILTAARDTVVYQFYLGYYYWGQGTQVTVSS
polyreactivity (PSR sort gate): low polyreactivity

QVQLVESGGGLVQAGGSLRLSCAASGRIFYPYAMGWYRQAPGKEREFVAAISYRGTSTFYADSVKGRFTISRDNAKNTVYLQMNSLKPEDTAVYYCAARVLWYGRATAAVTPYDYWGQGTQVTVSS
polyreactivity (PSR sort gate): high polyreactivity

QVQLVESGGGLVQAGGSLRLSCAASGLIFGGYAMGWYRQAPGKERELVAAISWDDGDTYYADSVKGRFTISRDNAKNTVYLQMNSLKPEDSAVYYCAAESLSGAHGYWGQGTQVTVSS
polyreactivity (PSR sort gate): low polyreactivity

QVQLVESGGGLVQAGGSLRLSCAASGRIFRVYAMGWYSQAPGKERELVASISSGGSTNYADSVKGRFTISRDNANNTVYLQMNSLKPEDTAVYYCAADRSGSFYKLDYWGQGTHVTVSS
polyreactivity (PSR sort gate): low polyreactivity

QVQLVESGGGLVQAGGSLRLSCAASGSIFSAYAMGWYRQAPGKEREFVASITWSGGSTYYADSVKGRFTISRDNAKNTVYLQMNSLKPEDTAVYYCAAVYVTWYNNYEYWGQGTQVTVSS
polyreactivity (PSR sort gate): high polyreactivity

QVQLVESGGGLVQAGGSLRLSCAASGSIFKSYAMGWYRQAPGKERELVAAISGRTGSTYYADSVKGRFTISRDNAKNTVSLQMNSLKPEDTAVYYCAAKSQSLYPFAMNYWGQGTQVTVSS
polyreactivity (PSR sort gate): high polyreactivity

QVQLVESGGGLVQAGGSLRLSCAASGNTLGYYAMGWYRQAAGKARELVATICDDGTTYYADSVKGRFTISRDNAMNTVYLQMNSLSPEETAVYYCASVGSAQYSMDYWGDGTQVTVSS
polyreactivity (PSR sort gate): low polyreactivity

QVQLVESGGGLVQAGGSLRLSCAASGSIFVYYTMGWYRQAPGKVRELVATITFRGNTYYADSVKGRFTISRDNAKNTVYLQMNSLKPEDTAVSYCAATRYGHRYYYRPYEYWGQGTQVTVSS
polyreactivity (PSR sort gate): high polyreactivity

QVQLVESGGGLVQAGGSLRLSCAASGSIFLVNDMGWYRQAPGKERELVAAISYSGDSTYYADSVKGRFTISRDNAKNTVYLQMNSLKPEDTAVYYCAADVFIISYVAAWHVRIDEFEWGQGTQVTVSS
polyreactivity (PSR sort gate): low polyreactivity

QVQLVESGGGLVQAGGSLRLSCAASGSIFGDYDMGWYRQAPGKERELVAAINRGGSTYYADSVKGRFTMSRDNAKNTVYLQMISLKPEDTAVYYCAAGYPSWYYGYAYDSWGQGTQVTVSS
polyreactivity (PSR sort gate): low polyreactivity
